Measured values from paper PMC8006934.

Legend:
[1] = target: FcγRIIb, human, C-terminally biotinylated (human) (UniProt P31994); experiment: SPR; conditions: natural protein; remark: other sources report otherwise
[2] = target: FcγRIa, FcγRIIa/b, and FcγRIIIa; experiment: SPR; IBIS MX96 array; C-terminally biotinylated FcRs spotted at different densities (100–1 nM) on one SensEye G-streptavidin sensor, blocked with biotinylated BSA; CRP injected in 2-fold dilutions from 0.98 to 2,000 nM in 20 mM Tris, 280 mM NaCl, 5 mM CaCl2, pH 8.0; KD by equilibrium fitting to Rmax = 500

Sequence of FcγRIIb, human, C-terminally biotinylated (human) (P31994 43-217): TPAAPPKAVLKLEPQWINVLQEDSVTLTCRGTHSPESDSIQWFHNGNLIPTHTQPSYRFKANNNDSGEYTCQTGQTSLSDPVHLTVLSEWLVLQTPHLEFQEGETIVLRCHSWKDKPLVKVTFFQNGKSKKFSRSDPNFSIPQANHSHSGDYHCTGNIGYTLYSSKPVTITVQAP

| Kd [1] [µM] | Kd [2] [µM] | Substance |
| --- | --- | --- |
| 4.2 |  | C-reactive protein (native CRP from human fluid) (from UniProt P02741 19-224) |
|  | 3.4 to 4.9 | C-reactive protein (native CRP from human fluid) (from UniProt P02741 19-224) (natural protein) |
